From US20210395354A1 (AMPSOURCE BIOPHARMA SHANGHAI, published 2021)
Changes are numbered by the printed parent chain.

B1: mouse monoclonal antibody #56 (antibody, mouse IgG1, V domains shown)
VH: QVQLKESGPGLVAPSQSLSITCTVSGFSLTGYGVNWVRQPPGKGLEWLGMIWADGDTDYNSALKSRLSISKDNSKSQVFLKVNNLQTDDTARYYCARDSYYYGYNFFDVWGAGTTVTVSS
VL: DIQMTQTTSSLSASLGDRVTISCRASQDISNYLNWYQQKPEGTLKLLIYYTSRLHSGVPSRFSGSGSGTDYSLTISSLEQEDIATYFCQQGNTLPRTFGGGTKLEIK
notes: also called Chen 56; antibody secreted by hybridoma A56
B2: mouse monoclonal antibody #2 (antibody, mouse IgG1, V domains shown)
VH: QVQLQQSGPELARPGASVKLSCKASGYTFTDYWMQWVKQRPGQGLEWIGTIYPGDGYTRYIQKFKGRATLTADKSSSTAYMQLNSLASEDSAVYYCARRAAYYTMDYWGQGTSVTVSS
VL: DIVMTQSHKFMSTSVGDRVSITCKASQDVNTAVAWYQQKPGQSPKLLIYWASTRHTGVPDRFTGSGSGTDYILTISSVQAEDLALYYCQQHYSSPWTFGGGTKLEIT
notes: also called Chen 2; antibody secreted by hybridoma A2
B3: human mouse chimeric antibody AB5C1 (antibody, V domains shown)
VH: B1 VH
VL: B1 VL
B4: humanized antibody AB5C6 (antibody, V domains shown)
VH: B1 VH with Q16E, S17T, S68T
VL: B1 VL with T7S, T8P, L15V, E79Q
notes: Humanized from #56 by surface remodeling
B5: human mouse chimeric antibody AB5D1 (antibody, V domains shown)
VH: B2 VH
VL: B2 VL
B6: humanized antibody AB5D6 (antibody, V domains shown)
VH: B2 VH with L11V, R13K, S76T, Q82E
VL: B2 VL with S20T, T63S
notes: Humanized from #2 by surface remodeling
B7: humanized antibody AB5C2 (antibody, V domains shown)
VH: QVQLQESGPGLVKPSETLSLTCTVSGFSLTGYGVNWVRQPPGKGLEWLGMIWADGDTDYNSALKSRVTISKDTSKNQFSLKLSSVTAADTARYYCARDSYYYGYNFFDVWGAGTTVTVSS
VL: DIQMTQSPSSLSASVGDRVTITCRASQDISNYLNWYQQKPGKAPKLLIYYTSRLHSGVPSRFSGSGSGTDFTFTISSLQPEDIATYFCQQGNTLPRTFGGGTKVEIK
notes: Humanized from #56 by CDR transplantation
B8: humanized antibody AB5C4 (antibody, V domains shown)
VH: QVQLQESGPGLVKPSETLSLTCTVSGFSLTGYGWGWVRQPPGKGLEWIGSIWADGDTYYNPSLKSRVTISVDTSKNQFSLKLSSVTAADTAVYYCARDSYYYGYNFFDVWGQGTMVTVSS
VL: B7 VL with R24Q, R53N, H55E, F87Y
notes: as for B7
B9: humanized antibody AB5C5 (antibody, V domains shown)
VH: B8 VH with I48L
VL: B7 VL with R24Q, R53N, H55E
notes: as for B7
B10: humanized antibody AB5C3 (antibody, V domains shown)
VH: B8 VH with V37I
VL: B7 VL with R24Q, R53N, H55E, S56T, F87Y
notes: as for B7
B11: humanized antibody AB5D2 (antibody, V domains shown)
VH: QVQLVQSGAEVKKPGASVKVSCKASGYTFTDYWMQWVKQRPGQGLEWIGTIYPGDGYTRYIQKFKGRVTMTRDTSTSTVYMELSSLRSEDSAVYYCARRAAYYTMDYWGQGTLVTVSS
VL: DIQMTQSPSSLSASVGDRVTITCKASQDVNTAVAWYQQKPGKAPKLLIYWASTRHTGVPDRFTGSGSGTDYTLTISSLQPEDLALYYCQQHYSSPWTFGGGTKVEIT
notes: Humanized from #2 by CDR transplantation
B12: humanized antibody AB5D4 (antibody, V domains shown)
VH: B11 VH with Q35H, R40A, I48M, T50I, R59S, I61A, K65Q, S91T
VL: B11 VL with K24R, V33L, I48L, T53R, R54L, H55E, D60S, T63S, L83F, L85T
notes: as for B11
B13: humanized antibody AB5D5 (antibody, V domains shown)
VH: B11 VH with Q35H, R40A, I48M, T50I, R59S, K65Q, S91T
VL: B11 VL with K24R, V33L, I48L, T53R, R54L, H55E, D60S, T63S, L85T
notes: as for B11
B14: humanized antibody AB5D3 (antibody, V domains shown)
VH: B11 VH with Q35H, K38R, R40A, I48M, T50I, R59S, I61A, K65Q, S91T
VL: DIQMTQSPSSLSASVGDRVTITCRASQDVNTALAWYQQKPGKAPKLLLYWASRLESGVPSRFSGSGSGTDYTLTISSLQPEDFATYYCQQHYSSPWTFGGGTKVEIT
notes: as for B11

Molecular target: T1, human NGF (his tag) (human, UniProt P01138 122-241, limits assumed)
T1 construct: Captured on Ni-NTA sensors in the ForteBio Octet assay; also called hNGF; antigen; not shown: his tag
Test: BLI (ForteBio Octet), human NGF (his tag) on Ni-NTA sensor
Description: (§1) The binding affinity constants of purified mouse monoclonal antibody #56 and #2 with antigens were determined by the bio film interference technique (fortebio octet Red & QK system, Pall company). […] After the kinetic fitting curve of affinity analysis, the affinity constant was calculated by analyzing the above data.

T1 sequence (P01138 122-241 limits assumed): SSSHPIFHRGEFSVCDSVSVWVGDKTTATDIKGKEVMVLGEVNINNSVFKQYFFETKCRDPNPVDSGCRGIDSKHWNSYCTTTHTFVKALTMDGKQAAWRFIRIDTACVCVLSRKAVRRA

| Binder | Kd [nM] | koff [s⁻¹] | kon [M⁻¹ s⁻¹] |
| --- | --- | --- | --- |
| B1 | 0.0123 | 8.89e-06 | 723000 |
| B2 | 0.0159 | 2.92e-05 | 1.83e+06 |

Molecular target: T2, human nerve growth factor (hNGF) (human, UniProt P01138 122-241)
T2 construct: also called human NGF
Test: indirect ELISA on coated hNGF (0.2 µg/ml), detection with HRP anti-mouse IgG, OD 450 nm
Description: Indirect ELISA was used to determine the binding titers of purified mouse antibody #2, #56 and #98 to hNGF. Among them, each pore was coated with 100 μl 0.2 μg/ml hNGF (Corning company) and placed at 4° C. for 16-20 h. The PBS buffer in 96 well plate was sucked off, washed with PBST (pH 7.4, PBS containing 0.05% Tween 20) buffer once, then 200 μL/well PBST/1% skimmed milk powder was added, incubated at room temperature for 1 h and sealed. Remove the blocking solution, wash the plate with PBST buffer for 3 times, add PBST/1% skimmed milk powder to dilute to the appropriate concentration of anti-hngf mouse antibody to be tested, 100 μL/well, incubate at room temperature for 1.5 h. Remove the reaction system, wash the plate with PBST three times, and then use the HRP labeled Sheep anti mouse IgG polyclonal antibody (Jackson Laboratory) diluted with PBST/1% skimmed milk powder (dilution ratio 1:5000) at 50 μL/well as the detection antibody, and incubate at room temperature for 1 h. After 3 times of PBST washing, add 100 μL/well TMB and incubate at room temperature for 10-30 min. Add 50 μL/pore 0.2 M sulfuric acid to stop the reaction.

T2 sequence (P01138 122-241 limits assumed): as above

| Binder | EC50 (read off the curve) [µg/mL] |
| --- | --- |
| B2 | ~0.007 |

Molecular target: T1, human NGF (his tag)
Test: BLI (ForteBio Octet), method of example 4
Description: as §1

| Binder | Kd [nM] | koff [s⁻¹] | kon [M⁻¹ s⁻¹] |
| --- | --- | --- | --- |
| B3 | 0.0299 | 5.4e-05 | 1.81e+06 |
| B4 | 0.0102 | 1.61e-05 | 1.59e+06 |
| B5 | 0.0106 | 1.55e-05 | 1.46e+06 |
| B6 | 0.0157 | 2.22e-05 | 1.41e+06 |
| B7 | 0.0013 | 2.16e-06 | 1.66e+06 |
| B8 | 0.0153 | 2.23e-05 | 1.46e+06 |
| B9 | 0.0089 | 1.59e-05 | 1.78e+06 |
| B10 | 0.00755 | 9.87e-06 | 1.31e+06 |
| B11 | 0.00633 | 7.94e-06 | 1.25e+06 |
| B12 | 0.0182 | 3.25e-05 | 1.78e+06 |
| B13 | 0.0154 | 1.89e-05 | 1.23e+06 |
| B14 | 0.0129 | 1.92e-05 | 1.49e+06 |

Molecular target: T2, human nerve growth factor (hNGF)
Test: cell-based or functional assay

| Binder | IC50 (read off the curve), NGF-dependent TF-1 cell proliferation [µg/mL] |
| --- | --- |
| B1 | ~0.4 |
| B3 | ~0.9 |
| B4 | ~0.4 |
| B7 | ~0.4 |
